Biological target: T1, N-SpTad2 (Schizosaccharomyces pombe, UniProt O94642 1-202)
T1 sequence: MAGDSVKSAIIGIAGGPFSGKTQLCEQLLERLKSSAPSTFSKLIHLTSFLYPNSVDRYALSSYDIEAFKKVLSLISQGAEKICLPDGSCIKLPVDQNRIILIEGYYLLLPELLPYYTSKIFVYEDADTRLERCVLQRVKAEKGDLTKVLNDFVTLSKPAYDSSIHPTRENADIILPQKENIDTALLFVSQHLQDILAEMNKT
Test: EMSA

B1: tRNAAla (structured_RNA)
RNA: GGGCGUGUGGCGUAGUCGGUAGCGCGCUCCCUUAGCAUGGGAGAGGUCUCCGGUUCGAUUCCGGACUCGUCCACC
B1: no binding.
